# Source: article PMC8519878 (Cell Reports, 2021)
# B1: antigen-binding fragment (Fab) of antibody 5-7, expressed as Fab (Fab, V domains shown)
# VH: QVQLVQSGAEVKKPGASVKVSCKASGYTFTSYYMHWVRQAPGQGLEWMGVINPSGGSTSYAEKFRGRVTMTRDTSTSTVYMELSSLRSEDTAVYYCARDREPHSDSSGYWDSLKYYYYYALDVWGQGTTVTVSS
# VL: AIQLTQSPSSLSASVGDRVTITCRASQGISSYLAWYQQKPGKAPELLIYAASTLQSGVPSRFSGSGSGTDFTLTISSLQPEDFATYYCQQLNTYPFTFGPGTKVDIK
# Target: SARS-CoV-2 S2P spike (SARS-CoV-2, ancestral spike (P0DTC2 …, stabilised))
# Assay: cryo-EM structure
binder,measurement,value
B1,stoichiometry N,3 Fabs per trimer
